# T1: Bak (residues 23-186) (UniProt Q16611 23-186)
# T1 construct: Bak, residues 23-186; Cloned in pET-28a(+) between NdeI and XhoI; buffer-exchanged to HBS-EP
# T1 sequence (looked up): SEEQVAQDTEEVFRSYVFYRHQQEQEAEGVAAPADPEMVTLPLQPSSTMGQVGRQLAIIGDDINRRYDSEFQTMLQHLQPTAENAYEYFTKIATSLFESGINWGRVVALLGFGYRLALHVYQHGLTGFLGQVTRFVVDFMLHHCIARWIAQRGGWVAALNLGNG
# Key:
# Conditions in all cases: both partners purified
# Bcl-2 (residues 1-207) [1] = target: T2, Bcl-2 (residues 1-207) (UniProt P10415 1-207); assay: SPR; Bid BH3 peptide amine-coupled to a CM5 chip (10 mM sodium acetate pH 4.0); proteins injected in HBS-EP (10 mM HEPES pH 7.5, 150 mM NaCl, 0.05 mM EDTA, 0.005% Tween 20) at 30 uL/min for 90 s; Biacore T200; affinity experiments, responses plotted against concentration
# T2 construct: Bcl-2, residues 1-207; Cloned in pET-28a(+) between NdeI and XhoI; buffer-exchanged to HBS-EP
# Bcl-XL (residues 1-209) [2] = target: T3, Bcl-XL (residues 1-209) (UniProt Q07817-1 1-209); assay: as above
# T3 construct: Bcl-XL, residues 1-209; Cloned in pET-28a(+) between NdeI and XhoI; buffer-exchanged to HBS-EP
# Bak (residues 23-186) = target: T1, Bak (residues 23-186); assay: as above
# Bcl-2 (residues 1-207) [3] = target: T2, Bcl-2 (residues 1-207); assay: SPR; Bfk BH3 peptide amine-coupled to a CM5 chip (10 mM sodium acetate pH 5.0); Bcl-2, Bcl-XL (3.13-200 nM) and Bak (1.25-40.0 uM) injected in HBS-EP at 30 uL/min for 90 s; Biacore T200; KD by steady-state affinity analysis
# Bcl-XL (residues 1-209) [4] = target: T3, Bcl-XL (residues 1-209); assay: as above
# T3 sequence (Q07817 1-209): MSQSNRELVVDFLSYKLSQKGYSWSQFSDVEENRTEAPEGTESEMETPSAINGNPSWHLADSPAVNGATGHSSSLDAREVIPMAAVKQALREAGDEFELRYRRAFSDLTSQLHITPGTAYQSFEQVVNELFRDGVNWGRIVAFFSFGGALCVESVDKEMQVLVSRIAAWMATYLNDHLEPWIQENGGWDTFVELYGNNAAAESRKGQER
# T2 sequence (P10415 1-207): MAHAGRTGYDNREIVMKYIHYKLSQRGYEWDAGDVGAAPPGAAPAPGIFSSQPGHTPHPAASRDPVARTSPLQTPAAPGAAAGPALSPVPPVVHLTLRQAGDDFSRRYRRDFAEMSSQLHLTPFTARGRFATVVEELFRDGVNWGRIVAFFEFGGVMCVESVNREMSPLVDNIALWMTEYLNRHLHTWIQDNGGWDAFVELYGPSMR
Kd (Bcl-2 (residues 1-207) [1]),Kd (Bcl-XL (residues 1-209) [2]),Kd (Bak (residues 23-186)),Kd (Bcl-2 (residues 1-207) [3]),Kd (Bcl-XL (residues 1-209) [4]),Binder
44 nM,87 nM,37000 nM,–,–,EDIIRNIARHLAQVGDSMDRS (BH3 peptide of Bid; also called Bid BH3 peptide; representative BH3 peptide; source: synthetic peptide) [synthetic BH3 peptide derived from Bid (residues 79-100)]
–,–,–,17.4 nM,36.9 nM,"SFDVAIIAGRLRMLGDQFNGE (BH3 peptide of human Bfk (BCL2L15), residues 47-67; also called Bfk BH3 peptide; Bfk BH3; source: synthetic peptide) [synthetic BH3 peptide derived from Bfk (residues 47-67)]"
